We go through 22 molecules from patent publication US20220372112A1 (KEYMED BIOSCIENCES, published 2022).

For the assay, the target named is T1, human Claudin 18.2 (human, UniProt P56856-2 1-261).
T1 construct: whole, on cells
T1 sequence (looked up): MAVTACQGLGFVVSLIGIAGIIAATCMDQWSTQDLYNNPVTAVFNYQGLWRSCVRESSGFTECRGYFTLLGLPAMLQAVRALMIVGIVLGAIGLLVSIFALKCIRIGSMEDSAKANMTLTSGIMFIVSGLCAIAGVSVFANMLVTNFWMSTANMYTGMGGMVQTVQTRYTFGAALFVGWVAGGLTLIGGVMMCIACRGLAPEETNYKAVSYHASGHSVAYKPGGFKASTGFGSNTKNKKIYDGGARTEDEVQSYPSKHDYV
The experiment in a line: flow cytometry (iQue) on cells, antibody from 100 nM in 5-fold steps; cell line not named in Example 5. Here is the method: The cells at logarithmic growth phase were taken, blocked with 3% BSA for 30 minutes, plated at 5×10⁴ cells/100 μL into a U-shaped 96-well plate, centrifuged at 1100 rpm for 3 minutes, the supernatant was discarded, the cells were gently patted and loosed, 50 μL of antibody diluted according to the series was added to each well (antibody concentration starts from 100 nM, 5 times dilution in 8 series), incubated at 4° C. for 1 hour. After the incubation, 140 μL of 0.5% BSA was added to each well to wash 3 times, AF 647 APC anti-human secondary antibody was added with 30 μL/well and incubated at 4° C. for 40 minutes. After the incubation, 140 μL of 0.5% BSA was added to each well to wash 3 times, and finally resuspended each well with 50 μL PBS for iQue (Intellicyt, USA) detection (shown in Table 2).
In general terms: A flow cytometer gives signals particle by particle.

B1: h15F9.v25 (antibody, V domains shown)
VH: QIQLVQSGSELKKPGASVKVSCKASGYTFTNYGINWVRQAPGQGLEWMGWINPNTGETTYAEGFTGRFVLSWDTSVSTAYLQISSLKAEDTAVYFCARLYYGNRFDSWGQGTLVTVSS
VL: DIVMTQSPDSLAVSLGERATINCKSSQSLLNSGNQRNYLAWYQQKPGQPPKLLIYWASTRESGVPDRFSGSGSGTDFTLTISSLQAEDVAVYYCQQAYYYPLTFGGGTKVEIK
notes: Humanized; also called 15F9VLv2 + 15F9VHv5
As to B1, the EC50 (as a rule, the concentration giving half of the maximal effect) is 0.773 nM.

B2: h18A9.v12 (antibody, V domains shown)
VH: QVQLVQSGAEVKKPGSSVKVSCKPSGYTFTNYLIDWVRQAPGQGLEWMGGINPGSGDTVYNEKFQGRVTLTADESTSTAYMELSSLRSEDTAVYFCARRVRGNSFDSWGQGTLVTVSS
VL: DIVMTQSPDSLAVSLGERATINCKSSQSLLNSGNQKNYLTWYQQKPGQPPKLLIYWASTRESGVPDRFSGSGSGKDFTLTISSLQAEDVAVYYCQNNYFYPLTFGGGTKVEIK
notes: Humanized; also called 18A9VLv1 + 18A9VHv2
B2 registered an EC50 of 0.913 nM.

B3: h15F9.v15r1 (antibody, V domains shown)
VH: QVQLVQSGSELKKPGASVKVSCKASGYTFTNYGINWVRQAPGQGLEWMGWINPNTGETTYAEEFKGRFVFSLDTSVSTAYLQISSLKAEDTAVYFCARLYYGNRFDSWGQGTLVTVSS
VL: DIVMTQSPDSLAVSLGERATINCKSSQSLLNSGNQRNYLTWYQQKPGQPPKLLIYWASTRESGVPDRFSGSGSGTDFTLTISSLQAEDVAVYYCQNAYYYPLTFGGGTKVEIK
notes: Humanized; also called 15F9VLv1 + 15F9VHv5r1
Turning to B3, the EC50 was 2.53 nM.

B4: h18A9.v13 (antibody, V domains shown)
VH: QVQLVQSGAEVKKPGSSVKVSCKPSGYTFTNYLIDWVRQAPGQGLEWMGGINPGSGDTVYNEKFQGRVTLTADKSSMTAYMELSSLRSEDTAVYYCARRVRGNSFDSWGQGTLVTVSS
VL: DIVMTQSPDSLAVSLGERATINCKSSQSLLNSGNQKNYLTWYQQKPGQPPKLLIYWASTRESGVPDRFSGSGSGKDFTLTISSLQAEDVAVYYCQNNYFYPLTFGGGTKVEIK
notes: Humanized; also called 18A9VLv1 + 18A9VHv3
In the case of B4, the EC50 stood at 0.761 nM.

B5: h15F9.v35r1 (antibody, V domains shown)
VH: QVQLVQSGSELKKPGASVKVSCKASGYTFTNYGINWVRQAPGQGLEWMGWINPNTGETTYAEEFKGRFVFSLDTSVSTAYLQISSLKAEDTAVYFCARLYYGNRFDSWGQGTLVTVSS
VL: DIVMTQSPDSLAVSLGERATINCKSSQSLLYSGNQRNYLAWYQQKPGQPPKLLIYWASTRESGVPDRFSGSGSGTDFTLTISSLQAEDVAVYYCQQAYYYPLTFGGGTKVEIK
notes: Humanized; also called 15F9VLv3 + 15F9VHv5r1
In the case of B5, the EC50 came out at 1.2 nM.

B6: h15F9.v35 (antibody, V domains shown)
VH: QIQLVQSGSELKKPGASVKVSCKASGYTFTNYGINWVRQAPGQGLEWMGWINPNTGETTYAEGFTGRFVLSWDTSVSTAYLQISSLKAEDTAVYFCARLYYGNRFDSWGQGTLVTVSS
VL: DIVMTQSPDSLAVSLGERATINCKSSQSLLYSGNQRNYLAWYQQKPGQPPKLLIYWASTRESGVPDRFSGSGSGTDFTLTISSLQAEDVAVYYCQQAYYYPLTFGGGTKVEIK
notes: Humanized; also called 15F9VLv3 + 15F9VHv5
In the case of B6, it took 0.951 nM to reach a half-maximal effect (EC50).

B7: h15F9.v35r2 (antibody, V domains shown)
VH: EVQLVQSGSELKKPGASVKVSCKASGYTFTNYGINWVRQAPGQGLEWMGWINPYTGETTYAEEFKGRFVFSLDTSVSTAYLQISSLKAEDTAVYFCARLYYGNRFDSWGQGTLVTVSS
VL: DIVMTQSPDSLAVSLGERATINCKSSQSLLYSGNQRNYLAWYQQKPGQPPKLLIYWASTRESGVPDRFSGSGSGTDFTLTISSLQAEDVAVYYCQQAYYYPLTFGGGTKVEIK
notes: Humanized; also called 15F9VLv3 + 15F9VHv5r2
The molecule B7 had an EC50 of 0.879 nM.

B8: h15F9.v26 (antibody, V domains shown)
VH: QIQLVQSGSELKKPGASVKVSCKASGYTFTNYGINWVRQAPGQGLEWMGWINPGTGETTYAEGFTGRFVLSWDTSVSTAYLQISSLKAEDTAVYFCARLYYGNRFDSWGQGTLVTVSS
VL: DIVMTQSPDSLAVSLGERATINCKSSQSLLNSGNQRNYLAWYQQKPGQPPKLLIYWASTRESGVPDRFSGSGSGTDFTLTISSLQAEDVAVYYCQQAYYYPLTFGGGTKVEIK
notes: Humanized; also called 15F9VLv2 + 15F9VHv6
Turning to B8, it took 1.02 nM to reach a half-maximal effect (EC50).

B9: h18A9.v16 (antibody, V domains shown)
VH: QVQLVQSGAEVKKPGASVKVSCKPSGYAFTNYLIDWVRQAPGQGLEWMGGINPGSGDTVYNEKFQGRVTLTADKSSSTAYMELSSLRSEDTAVYFCARRVRGNSFDSWGQGTLVTVSS
VL: DIVMTQSPDSLAVSLGERATINCKSSQSLLNSGNQKNYLTWYQQKPGQPPKLLIYWASTRESGVPDRFSGSGSGKDFTLTISSLQAEDVAVYYCQNNYFYPLTFGGGTKVEIK
notes: Humanized; also called 18A9VLv1 + 18A9VHv6
With B9, the midpoint of the response, the EC50, lay at 0.799 nM.

B10: h18A9.v15 (antibody, V domains shown)
VH: QVQLVQSGAEVKKPGSSVKVSCKPSGYTFTNYLIDWVRQAPGQGLEWMGGINPGSGDTVYNEKFQGRVTITADESTSTAYMELSSLRSEDTAVYFCARRVRGNSFDSWGQGTLVTVSS
VL: DIVMTQSPDSLAVSLGERATINCKSSQSLLNSGNQKNYLTWYQQKPGQPPKLLIYWASTRESGVPDRFSGSGSGKDFTLTISSLQAEDVAVYYCQNNYFYPLTFGGGTKVEIK
notes: Humanized; also called 18A9VLv1 + 18A9VHv5
B10: a half-maximal effect (EC50) was put at 1.41 nM.

B11: h18A9.v23 (antibody, V domains shown)
VH: QVQLVQSGAEVKKPGSSVKVSCKPSGYTFTNYLIDWVRQAPGQGLEWMGGINPGSGDTVYNEKFQGRVTLTADKSSMTAYMELSSLRSEDTAVYYCARRVRGNSFDSWGQGTLVTVSS
VL: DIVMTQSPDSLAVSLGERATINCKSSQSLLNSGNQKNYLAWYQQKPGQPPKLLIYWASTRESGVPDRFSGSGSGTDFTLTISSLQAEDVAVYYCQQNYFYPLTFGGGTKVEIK
notes: Humanized; also called 18A9VLv2 + 18A9VHv3
For B11, the EC50 was determined as 1.17 nM.

B12: h15F9.v15r2 (antibody, V domains shown)
VH: EVQLVQSGSELKKPGASVKVSCKASGYTFTNYGINWVRQAPGQGLEWMGWINPYTGETTYAEEFKGRFVFSLDTSVSTAYLQISSLKAEDTAVYFCARLYYGNRFDSWGQGTLVTVSS
VL: DIVMTQSPDSLAVSLGERATINCKSSQSLLNSGNQRNYLTWYQQKPGQPPKLLIYWASTRESGVPDRFSGSGSGTDFTLTISSLQAEDVAVYYCQNAYYYPLTFGGGTKVEIK
notes: Humanized; also called 15F9VLv1 + 15F9VHv5r2
In the case of B12, the EC50 was 1.65 nM.

B13: h15F9.v16 (antibody, V domains shown)
VH: QIQLVQSGSELKKPGASVKVSCKASGYTFTNYGINWVRQAPGQGLEWMGWINPGTGETTYAEGFTGRFVLSWDTSVSTAYLQISSLKAEDTAVYFCARLYYGNRFDSWGQGTLVTVSS
VL: DIVMTQSPDSLAVSLGERATINCKSSQSLLNSGNQRNYLTWYQQKPGQPPKLLIYWASTRESGVPDRFSGSGSGTDFTLTISSLQAEDVAVYYCQNAYYYPLTFGGGTKVEIK
notes: Humanized; also called 15F9VLv1 + 15F9VHv6
B13: the EC50 was determined as 0.705 nM.

B14: h15F9.v25r2 (antibody, V domains shown)
VH: EVQLVQSGSELKKPGASVKVSCKASGYTFTNYGINWVRQAPGQGLEWMGWINPYTGETTYAEEFKGRFVFSLDTSVSTAYLQISSLKAEDTAVYFCARLYYGNRFDSWGQGTLVTVSS
VL: DIVMTQSPDSLAVSLGERATINCKSSQSLLNSGNQRNYLAWYQQKPGQPPKLLIYWASTRESGVPDRFSGSGSGTDFTLTISSLQAEDVAVYYCQQAYYYPLTFGGGTKVEIK
notes: Humanized; also called 15F9VLv2 + 15F9VHv5r2
On to B14, for which the EC50 was 1.61 nM.

B15: h15F9.v15 (antibody, V domains shown)
VH: QIQLVQSGSELKKPGASVKVSCKASGYTFTNYGINWVRQAPGQGLEWMGWINPNTGETTYAEGFTGRFVLSWDTSVSTAYLQISSLKAEDTAVYFCARLYYGNRFDSWGQGTLVTVSS
VL: DIVMTQSPDSLAVSLGERATINCKSSQSLLNSGNQRNYLTWYQQKPGQPPKLLIYWASTRESGVPDRFSGSGSGTDFTLTISSLQAEDVAVYYCQNAYYYPLTFGGGTKVEIK
notes: Humanized; also called 15F9VLv1 + 15F9VHv5
The molecule B15 had an EC50 of 1.67 nM.

B16: h15F9.v36 (antibody, V domains shown)
VH: QIQLVQSGSELKKPGASVKVSCKASGYTFTNYGINWVRQAPGQGLEWMGWINPGTGETTYAEGFTGRFVLSWDTSVSTAYLQISSLKAEDTAVYFCARLYYGNRFDSWGQGTLVTVSS
VL: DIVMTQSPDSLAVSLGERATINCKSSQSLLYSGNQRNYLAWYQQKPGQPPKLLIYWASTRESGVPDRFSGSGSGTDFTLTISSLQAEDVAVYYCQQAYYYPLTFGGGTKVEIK
notes: Humanized; also called 15F9VLv3 + 15F9VHv6
B16 came in with an EC50 of 0.786 nM.

B17: h15F9.v25r1 (antibody, V domains shown)
VH: QVQLVQSGSELKKPGASVKVSCKASGYTFTNYGINWVRQAPGQGLEWMGWINPNTGETTYAEEFKGRFVFSLDTSVSTAYLQISSLKAEDTAVYFCARLYYGNRFDSWGQGTLVTVSS
VL: DIVMTQSPDSLAVSLGERATINCKSSQSLLNSGNQRNYLAWYQQKPGQPPKLLIYWASTRESGVPDRFSGSGSGTDFTLTISSLQAEDVAVYYCQQAYYYPLTFGGGTKVEIK
notes: Humanized; also called 15F9VLv2 + 15F9VHv5r1
As to B17, the EC50 stood at 1.72 nM.

B18: h18A9.v11 (antibody, V domains shown)
VH: QVQLVQSGAEVKKPGSSVKVSCKPSGYAFTNYLIDWVRQAPGQGLEWMGGINPGSGDTVYNEKFQGRVTLTADKSSMTAYMELSSLRSEDTAVYFCARRVRGNSFDSWGQGTLVTVSS
VL: DIVMTQSPDSLAVSLGERATINCKSSQSLLNSGNQKNYLTWYQQKPGQPPKLLIYWASTRESGVPDRFSGSGSGKDFTLTISSLQAEDVAVYYCQNNYFYPLTFGGGTKVEIK
notes: Humanized; also called 18A9VLv1 + 18A9VHv1
The molecule B18 registered an EC50 of 0.645 nM.

B19: h18A9.v17 (antibody, V domains shown)
VH: QVQLVQSGAEVKKPGASVKVSCKPSGYTFTNYLIDWVRQAPGQGLEWMGGINPGSGDTVYNEKFQGRVTLTADTSTSTVYMELSSLRSEDTAVYFCARRVRGNSFDSWGQGTLVTVSS
VL: DIVMTQSPDSLAVSLGERATINCKSSQSLLNSGNQKNYLTWYQQKPGQPPKLLIYWASTRESGVPDRFSGSGSGKDFTLTISSLQAEDVAVYYCQNNYFYPLTFGGGTKVEIK
notes: Humanized; also called 18A9VLv1 + 18A9VHv7
Consider B19, for which a half-maximal effect (EC50) was put at 1.43 nM.

B20: h18A9.v21 (antibody, V domains shown)
VH: QVQLVQSGAEVKKPGSSVKVSCKPSGYAFTNYLIDWVRQAPGQGLEWMGGINPGSGDTVYNEKFQGRVTLTADKSSMTAYMELSSLRSEDTAVYFCARRVRGNSFDSWGQGTLVTVSS
VL: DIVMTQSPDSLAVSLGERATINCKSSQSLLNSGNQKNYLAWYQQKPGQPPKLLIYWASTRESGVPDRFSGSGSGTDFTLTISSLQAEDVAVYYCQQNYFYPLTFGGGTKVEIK
notes: Humanized; also called 18A9VLv2 + 18A9VHv1
Molecule B20 showed a concentration giving a half-maximal response (EC50) of 1.03 nM.

B21: h18A9.v14 (antibody, V domains shown)
VH: QVQLVQSGAEVKKPGSSVKVSCKASGYTFTNYLIDWVRQAPGQGLEWMGGINPGSGDTVYNEKFQGRVTLTADKSSMTAYMELSSLRSEDTAVYFCARRVRGNSFDSWGQGTLVTVSS
VL: DIVMTQSPDSLAVSLGERATINCKSSQSLLNSGNQKNYLTWYQQKPGQPPKLLIYWASTRESGVPDRFSGSGSGKDFTLTISSLQAEDVAVYYCQNNYFYPLTFGGGTKVEIK
notes: Humanized; also called 18A9VLv1 + 18A9VHv4
As for B21, the EC50 came out at 0.548 nM.

B22: h18A9.v22 (antibody, V domains shown)
VH: QVQLVQSGAEVKKPGSSVKVSCKPSGYTFTNYLIDWVRQAPGQGLEWMGGINPGSGDTVYNEKFQGRVTLTADESTSTAYMELSSLRSEDTAVYFCARRVRGNSFDSWGQGTLVTVSS
VL: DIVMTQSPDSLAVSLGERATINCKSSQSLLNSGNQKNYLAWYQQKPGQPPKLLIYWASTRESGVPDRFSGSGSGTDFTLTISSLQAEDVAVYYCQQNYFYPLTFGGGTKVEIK
notes: Humanized; also called 18A9VLv2 + 18A9VHv2
On to B22, for which the EC50 was found to be 0.822 nM.
